Data as given in US10464978B2, “Peptides and combination of peptides for use in immunotherapy against ovarian cancer and other cancers” (immatics biotechnologies GmbH, priority 2015, dated 2019).

Target: HLA-A*02:01 (Homo sapiens, UniProt P04439, D140Y/D185E/D98H/E176V/E277Q/G131W/G231S/I119V/I121R/I166T/I218V/L300P/L318F/N151K/N90K/P208A/P217A/Q86G/Q94H/R138H/R169H/T345S)
Experiment: MHC binding assay: UV-ligand exchange with beta2m ELISA (peptide exchange yield)
Details: binding to HLA-A*02:01
Method in brief: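 Peptide-MHC complexes formed by UV-ligand exchange, a UV-cleavable peptide being replaced by the candidate peptide. Exchange products diluted 100-fold, captured on streptavidin-coated plates for 1h at 37° C, then detected with 2 ug/ml HRP anti-β2m (1h, 37° C) and TMB, absorbance 450 nm; value is exchange yield.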

| Substance | Peptide exchange (MHC class I binding score, peptide exchange yield) |
| --- | --- |
| 341 (SQIALNEKLVNL; listed as Homo sapiens) [compound 341] | “+++” (≥50 = +++) |
| 29 (KMLGIPISNILMV; listed as Homo sapiens) [compound 29] | “+++” (≥50 = +++) |
| 375 (SLTETIEGV; listed as Homo sapiens) [compound 375] | “++” (≥20% = ++) |
| 217 (ALIHPVSTV; listed as Homo sapiens) [compound 217] | “++” (≥20% = ++) |
| 436 (HLAEVSAEV; listed as Homo sapiens) [compound 436] | “+++” (≥50 = +++) |
| 21 (VLDELDMEL; listed as Homo sapiens) [compound 21] | “++” (≥20% = ++) |
| 329 (FLVTLNNVEV; listed as Homo sapiens) [compound 329] | “++++” (≥75% = ++++) |
| 69 (FQLDPSSGVLVTV; listed as Homo sapiens) [compound 69] | “+++” (≥50 = +++) |
| 151 (KILQQLVTL; listed as Homo sapiens) [compound 151] | “+++” (≥50 = +++) |
| 218 (SALEELVNV; listed as Homo sapiens) [compound 218] | “++” (≥20% = ++) |
| 306 (ALVNVQIPL; listed as Homo sapiens) [compound 306] | “+++” (≥50 = +++) |
| 513 (SLWPSPEQL; listed as Homo sapiens) [compound 513] | “++” (≥20% = ++) |
| 170 (RLQETLSAA; listed as Homo sapiens) [compound 170] | “+++” (≥50 = +++) |
| 303 (AILPQLFMV; listed as Homo sapiens) [compound 303] | “++++” (≥75% = ++++) |
| 543 (GLLPTPITQQASL; listed as Homo sapiens) [compound 543] | “+++” (≥50 = +++) |
| 620 (KLLNKIYEA; listed as Homo sapiens) [compound 620] | “++++” (≥75% = ++++) |

| Substance | Peptide exchange (MHC class I binding score, peptide exchange yield) |
| --- | --- |
| 524 (ALIENLTHQI; listed as Homo sapiens) [compound 524] | “++” (≥20% = ++) |
| 201 (RLVDYLEGI; listed as Homo sapiens) [compound 201] | “+++” (≥50 = +++) |
| 315 (YLQDVVEQA; listed as Homo sapiens) [compound 315] | “+++” (≥50 = +++) |
| 426 (RLADKSVLV; listed as Homo sapiens) [compound 426] | “+++” (≥50 = +++) |
| 9 (GAAKDLPGV; listed as Homo sapiens) [compound 9] | “++” (≥20% = ++) |
| 399 (YLFEPLYHV; listed as Homo sapiens) [compound 399] | “+++” (≥50 = +++) |
| 529 (LLADELITV; listed as Homo sapiens) [compound 529] | “+++” (≥50 = +++) |
| 618 (VLFDSESIGIYV; listed as Homo sapiens) [compound 618] | “+++” (≥50 = +++) |
| 330 (QLALKVEGV; listed as Homo sapiens) [compound 330] | “+++” (≥50 = +++) |
| 81 (FLFSQLQYL; listed as Homo sapiens) [compound 81] | “++” (≥20% = ++) |
| 318 (GLINTGVLSV; listed as Homo sapiens) [compound 318] | “++” (≥20% = ++) |
| 22 (IMEENPGIFAV; listed as Homo sapiens) [compound 22] | “+++” (≥50 = +++) |
| 64 (YAAPGGLIGV; listed as Homo sapiens) [compound 64] | “++” (≥20% = ++) |
| 228 (AMQEYIAVV; listed as Homo sapiens) [compound 228] | “++” (≥20% = ++) |
| 300 (ALLGQTFSL; listed as Homo sapiens) [compound 300] | “+++” (≥50 = +++) |
| 363 (KVLDVSDLESV; listed as Homo sapiens) [compound 363] | “++” (≥20% = ++) |

The next lines start with the values.

| Peptide exchange (MHC class I binding score, peptide exchange yield) | Substance |
| --- | --- |
| “++” (≥20% = ++) | 154 (ALDDGTPAL; listed as Homo sapiens) [compound 154] |
| “+++” (≥50 = +++) | 485 (NVPDSFNEV; listed as Homo sapiens) [compound 485] |
| “+++” (≥50 = +++) | 450 (FMIDASVHPTL; listed as Homo sapiens) [compound 450] |
| “+++” (≥50 = +++) | 49 (YLPAVFEEV; listed as Homo sapiens) [compound 49] |
| “+++” (≥50 = +++) | 324 (FLYDEIEAEV; listed as Homo sapiens) [compound 324] |
| “+++” (≥50 = +++) | 313 (VLFDDELLMV; listed as Homo sapiens) [compound 313] |
| “++” (≥20% = ++) | 141 (YLDFSNNRL; listed as Homo sapiens) [compound 141] |
| “+++” (≥50 = +++) | 509 (FLFDTKPLIV; listed as Homo sapiens) [compound 509] |
| “+++” (≥50 = +++) | 569 (KLVDRTWTL; listed as Homo sapiens) [compound 569] |
| “+++” (≥50 = +++) | 441 (ALLENPKMEL; listed as Homo sapiens) [compound 441] |
| “+++” (≥50 = +++) | 88 (FLLVGDLMAV; listed as Homo sapiens) [compound 88] |
| “+++” (≥50 = +++) | 584 (ALAEVAAMENV; listed as Homo sapiens) [compound 584] |
| “++++” (≥75% = ++++) | 237 (ALLEASGTLLL; listed as Homo sapiens) [compound 237] |
| “+++” (≥50 = +++) | 152 (ILFEDIFDV; listed as Homo sapiens) [compound 152] |
| “+++” (≥50 = +++) | 364 (LLQNEQFEL; listed as Homo sapiens) [compound 364] |
| “+++” (≥50 = +++) | 311 (RLYTGMHTV; listed as Homo sapiens) [compound 311] |

| Peptide exchange (MHC class I binding score, peptide exchange yield) | Substance |
| --- | --- |
| “++” (≥20% = ++) | 180 (FQIDPHSGLVTV; listed as Homo sapiens) [compound 180] |
| “+++” (≥50 = +++) | 356 (KLLGKLPEL; listed as Homo sapiens) [compound 356] |
| “++” (≥20% = ++) | 258 (ELAERVPAI; listed as Homo sapiens) [compound 258] |
| “++” (≥20% = ++) | 131 (FVPPVTVFPSL; listed as Homo sapiens) [compound 131] |
| “+++” (≥50 = +++) | 272 (ALGNTVPAV; listed as Homo sapiens) [compound 272] |
| “+++” (≥50 = +++) | 54 (SLLEQGKEPWMV; listed as Homo sapiens) [compound 54] |
| “++” (≥20% = ++) | 229 (RLPGPLGTV; listed as Homo sapiens) [compound 229] |
| “++” (≥20% = ++) | 94 (YLIDIKTIAI; listed as Homo sapiens) [compound 94] |
| “+++” (≥50 = +++) | 394 (LLAVIGGLVYL; listed as Homo sapiens) [compound 394] |
| “+++” (≥50 = +++) | 346 (LLDSKVPSV; listed as Homo sapiens) [compound 346] |
| “++” (≥20% = ++) | 186 (TLFFQQNAL; listed as Homo sapiens) [compound 186] |
| “+++” (≥50 = +++) | 144 (YIMEPSIFNTL; listed as Homo sapiens) [compound 144] |
| “+++” (≥50 = +++) | 46 (ILTEENIHL; listed as Homo sapiens) [compound 46] |
| “++” (≥20% = ++) | 379 (IMEGTLTRV; listed as Homo sapiens) [compound 379] |
| “+++” (≥50 = +++) | 82 (FLSSVTYNL; listed as Homo sapiens) [compound 82] |
